# Source: patent US20180244758A1 (MAPP BIOPHARMACEUTICAL, published 2018)
# T1: EBOV GP on rVSV particles (Ebola virus (EBOV), UniProt Q05320 33-676)
# T1 sequence: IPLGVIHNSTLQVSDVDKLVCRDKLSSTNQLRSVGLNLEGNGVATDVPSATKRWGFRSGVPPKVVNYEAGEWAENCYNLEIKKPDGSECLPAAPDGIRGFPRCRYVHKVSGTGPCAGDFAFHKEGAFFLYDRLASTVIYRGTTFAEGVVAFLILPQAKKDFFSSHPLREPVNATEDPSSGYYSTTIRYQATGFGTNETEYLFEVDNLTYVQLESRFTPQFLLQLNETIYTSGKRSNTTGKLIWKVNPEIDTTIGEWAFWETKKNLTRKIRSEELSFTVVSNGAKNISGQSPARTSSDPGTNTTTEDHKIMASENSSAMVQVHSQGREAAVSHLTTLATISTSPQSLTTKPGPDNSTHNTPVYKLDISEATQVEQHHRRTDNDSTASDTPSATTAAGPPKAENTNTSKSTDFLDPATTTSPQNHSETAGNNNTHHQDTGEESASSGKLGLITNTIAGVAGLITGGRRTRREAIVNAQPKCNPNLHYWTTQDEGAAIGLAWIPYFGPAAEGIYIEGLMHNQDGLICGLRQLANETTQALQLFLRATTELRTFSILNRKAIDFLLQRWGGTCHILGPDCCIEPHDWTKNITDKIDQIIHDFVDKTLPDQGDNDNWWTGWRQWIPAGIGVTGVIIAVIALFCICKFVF
# T2: TAFV GP on VSV pseudotype particles (Tai Forest virus (TAFV), UniProt Q66810 33-676)
# T2 sequence: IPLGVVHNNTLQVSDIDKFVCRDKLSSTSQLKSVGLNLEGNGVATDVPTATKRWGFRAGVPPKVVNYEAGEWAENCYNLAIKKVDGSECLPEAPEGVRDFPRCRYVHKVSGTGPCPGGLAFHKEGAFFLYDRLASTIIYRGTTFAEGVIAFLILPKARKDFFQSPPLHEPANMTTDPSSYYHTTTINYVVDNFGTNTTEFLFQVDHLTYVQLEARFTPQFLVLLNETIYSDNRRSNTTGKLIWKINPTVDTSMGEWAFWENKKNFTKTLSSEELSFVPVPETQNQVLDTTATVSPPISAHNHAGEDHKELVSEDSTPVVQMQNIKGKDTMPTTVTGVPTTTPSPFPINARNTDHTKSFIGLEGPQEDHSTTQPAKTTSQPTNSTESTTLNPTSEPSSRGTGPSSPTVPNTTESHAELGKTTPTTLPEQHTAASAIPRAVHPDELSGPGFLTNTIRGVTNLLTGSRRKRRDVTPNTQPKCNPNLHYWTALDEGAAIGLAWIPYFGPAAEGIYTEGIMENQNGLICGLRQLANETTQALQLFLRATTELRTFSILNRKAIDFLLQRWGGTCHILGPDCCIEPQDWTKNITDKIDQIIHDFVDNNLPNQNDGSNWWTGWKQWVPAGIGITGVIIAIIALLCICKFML
# T3: SUDV GP on rVSV particles (Sudan virus (SUDV), UniProt Q66814 33-676)
# T3 sequence: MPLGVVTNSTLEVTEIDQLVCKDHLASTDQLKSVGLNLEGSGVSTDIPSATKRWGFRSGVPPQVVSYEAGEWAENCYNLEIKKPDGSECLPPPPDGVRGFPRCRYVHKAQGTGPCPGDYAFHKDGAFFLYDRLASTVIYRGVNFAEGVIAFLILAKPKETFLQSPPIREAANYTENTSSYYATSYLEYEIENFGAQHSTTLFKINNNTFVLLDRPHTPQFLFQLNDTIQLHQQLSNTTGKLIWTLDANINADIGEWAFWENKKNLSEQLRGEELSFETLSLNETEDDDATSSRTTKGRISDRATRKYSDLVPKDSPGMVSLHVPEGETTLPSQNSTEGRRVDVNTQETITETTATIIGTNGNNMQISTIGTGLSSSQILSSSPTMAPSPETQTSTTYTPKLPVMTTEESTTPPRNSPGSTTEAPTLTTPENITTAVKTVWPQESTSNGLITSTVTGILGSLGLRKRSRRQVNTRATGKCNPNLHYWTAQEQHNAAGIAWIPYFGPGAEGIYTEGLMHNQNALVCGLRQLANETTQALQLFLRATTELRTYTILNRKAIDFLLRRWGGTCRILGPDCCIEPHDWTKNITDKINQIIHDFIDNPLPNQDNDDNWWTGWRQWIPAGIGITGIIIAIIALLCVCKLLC
# T4: RESTV GP on rVSV particles (Reston virus (RESTV), UniProt Q66799 34-677)
# T4 sequence: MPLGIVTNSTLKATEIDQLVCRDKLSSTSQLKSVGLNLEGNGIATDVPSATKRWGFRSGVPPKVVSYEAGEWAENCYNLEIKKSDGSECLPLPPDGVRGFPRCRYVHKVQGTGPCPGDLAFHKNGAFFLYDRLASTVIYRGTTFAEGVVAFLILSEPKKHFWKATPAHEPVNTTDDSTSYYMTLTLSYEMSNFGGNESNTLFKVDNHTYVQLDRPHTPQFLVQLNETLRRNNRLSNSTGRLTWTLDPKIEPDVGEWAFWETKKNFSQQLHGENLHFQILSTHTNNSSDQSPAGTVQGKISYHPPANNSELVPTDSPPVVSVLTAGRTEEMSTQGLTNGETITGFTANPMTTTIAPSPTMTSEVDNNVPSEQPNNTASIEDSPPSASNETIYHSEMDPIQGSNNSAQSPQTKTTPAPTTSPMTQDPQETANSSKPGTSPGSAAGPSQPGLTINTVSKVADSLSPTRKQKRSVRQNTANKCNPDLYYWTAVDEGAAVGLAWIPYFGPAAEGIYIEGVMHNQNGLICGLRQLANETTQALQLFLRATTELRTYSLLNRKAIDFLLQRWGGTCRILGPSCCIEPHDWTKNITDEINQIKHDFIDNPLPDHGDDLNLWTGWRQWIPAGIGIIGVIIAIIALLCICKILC
# Key:
# Assay in all cases: cell-based or functional assay
# [1] = target: T1, EBOV GP on rVSV particles
# [2] = target: T2, TAFV GP on VSV pseudotype particles
# [3] = target: T3, SUDV GP on rVSV particles
# [4] = target: BDBV GP on rVSV particles (Bundibugyo virus (BDBV))
# [5] = target: T4, RESTV GP on rVSV particles
binder,measurement,setting,value
"PE-87 D99A (antibody, V domains shown) VH: QVQLVQSGVTLVQPGGSLRVSCAASGFTFSSYAMSWVRQAPGKGLEWVSAISGLGGSTYYADSVKGRFTISRDNSKNTLYLQMNSLRAEDTAVYYCAKAHRVWAAGYHFDYWGQGALVTVSS VL: DIVLTQSPSTLSASVGDRVTITCRASQSISSWLAWYQQKPGEAPKLLISDASSLESGVPSRFSGSGSGTEFTLTISSLQPDDFATYYCQQYYSSPTFGGGTKVEIK","IC50 (nM), neutralization of rVSV-GP",[1],> 500 nM
same,"IC50 (nM), neutralization of rVSV-GP",[2],> 350 nM
"PE-87 H100A (antibody, V domains shown) VH: QVQLVQSGVTLVQPGGSLRVSCAASGFTFSSYAMSWVRQAPGKGLEWVSAISGLGGSTYYADSVKGRFTISRDNSKNTLYLQMNSLRAEDTAVYYCAKDARVWAAGYHFDYWGQGALVTVSS VL: DIVLTQSPSTLSASVGDRVTITCRASQSISSWLAWYQQKPGEAPKLLISDASSLESGVPSRFSGSGSGTEFTLTISSLQPDDFATYYCQQYYSSPTFGGGTKVEIK","IC50 (nM), neutralization of rVSV-GP",[1],1 nM
same,"IC50 (nM), neutralization of rVSV-GP",[3],1 nM
same,"IC50 (nM), neutralization of rVSV-GP",[4],0.4 nM
same,"IC50 (nM), neutralization of rVSV-GP",[5],0.2 nM
same,"IC50 (nM), neutralization of rVSV-GP",[2],0.8 nM
"PE-87 G106A (antibody, V domains shown) VH: QVQLVQSGVTLVQPGGSLRVSCAASGFTFSSYAMSWVRQAPGKGLEWVSAISGLGGSTYYADSVKGRFTISRDNSKNTLYLQMNSLRAEDTAVYYCAKDHRVWAAAYHFDYWGQGALVTVSS VL: DIVLTQSPSTLSASVGDRVTITCRASQSISSWLAWYQQKPGEAPKLLISDASSLESGVPSRFSGSGSGTEFTLTISSLQPDDFATYYCQQYYSSPTFGGGTKVEIK","IC50 (nM), neutralization of rVSV-GP",[1],0.8 nM
same,"IC50 (nM), neutralization of rVSV-GP",[3],0.9 nM
same,"IC50 (nM), neutralization of rVSV-GP",[4],0.4 nM
same,"IC50 (nM), neutralization of rVSV-GP",[5],0.2 nM
same,"IC50 (nM), neutralization of rVSV-GP",[2],0.8 nM
"PE-87 H108A (antibody, V domains shown) VH: QVQLVQSGVTLVQPGGSLRVSCAASGFTFSSYAMSWVRQAPGKGLEWVSAISGLGGSTYYADSVKGRFTISRDNSKNTLYLQMNSLRAEDTAVYYCAKDHRVWAAGYAFDYWGQGALVTVSS VL: DIVLTQSPSTLSASVGDRVTITCRASQSISSWLAWYQQKPGEAPKLLISDASSLESGVPSRFSGSGSGTEFTLTISSLQPDDFATYYCQQYYSSPTFGGGTKVEIK","IC50 (nM), neutralization of rVSV-GP",[1],3.2 nM
same,"IC50 (nM), neutralization of rVSV-GP",[3],2.1 nM
same,"IC50 (nM), neutralization of rVSV-GP",[4],0.6 nM
same,"IC50 (nM), neutralization of rVSV-GP",[5],0.5 nM
same,"IC50 (nM), neutralization of rVSV-GP",[2],2.2 nM
"PE-87 W103A (antibody, V domains shown) VH: QVQLVQSGVTLVQPGGSLRVSCAASGFTFSSYAMSWVRQAPGKGLEWVSAISGLGGSTYYADSVKGRFTISRDNSKNTLYLQMNSLRAEDTAVYYCAKDHRVAAAGYHFDYWGQGALVTVSS VL: DIVLTQSPSTLSASVGDRVTITCRASQSISSWLAWYQQKPGEAPKLLISDASSLESGVPSRFSGSGSGTEFTLTISSLQPDDFATYYCQQYYSSPTFGGGTKVEIK","IC50 (nM), neutralization of rVSV-GP",[4],> 200 nM
same,"IC50 (nM), neutralization of rVSV-GP",[2],> 150 nM
"PE-87 R101A (antibody, V domains shown) VH: QVQLVQSGVTLVQPGGSLRVSCAASGFTFSSYAMSWVRQAPGKGLEWVSAISGLGGSTYYADSVKGRFTISRDNSKNTLYLQMNSLRAEDTAVYYCAKDHAVWAAGYHFDYWGQGALVTVSS VL: DIVLTQSPSTLSASVGDRVTITCRASQSISSWLAWYQQKPGEAPKLLISDASSLESGVPSRFSGSGSGTEFTLTISSLQPDDFATYYCQQYYSSPTFGGGTKVEIK","IC50 (nM), neutralization of rVSV-GP",[1],3.2 nM
same,"IC50 (nM), neutralization of rVSV-GP",[3],1.5 nM
same,"IC50 (nM), neutralization of rVSV-GP",[4],0.4 nM
same,"IC50 (nM), neutralization of rVSV-GP",[5],0.2 nM
same,"IC50 (nM), neutralization of rVSV-GP",[2],1.9 nM
"PE-87 F109A (antibody, V domains shown) VH: QVQLVQSGVTLVQPGGSLRVSCAASGFTFSSYAMSWVRQAPGKGLEWVSAISGLGGSTYYADSVKGRFTISRDNSKNTLYLQMNSLRAEDTAVYYCAKDHRVWAAGYHADYWGQGALVTVSS VL: DIVLTQSPSTLSASVGDRVTITCRASQSISSWLAWYQQKPGEAPKLLISDASSLESGVPSRFSGSGSGTEFTLTISSLQPDDFATYYCQQYYSSPTFGGGTKVEIK","IC50 (nM), neutralization of rVSV-GP",[1],4.2 nM
same,"IC50 (nM), neutralization of rVSV-GP",[3],2.1 nM
same,"IC50 (nM), neutralization of rVSV-GP",[4],0.3 nM
same,"IC50 (nM), neutralization of rVSV-GP",[5],0.4 nM
same,"IC50 (nM), neutralization of rVSV-GP",[2],2.8 nM
"PE-87 Y107A (antibody, V domains shown) VH: QVQLVQSGVTLVQPGGSLRVSCAASGFTFSSYAMSWVRQAPGKGLEWVSAISGLGGSTYYADSVKGRFTISRDNSKNTLYLQMNSLRAEDTAVYYCAKDHRVWAAGAHFDYWGQGALVTVSS VL: DIVLTQSPSTLSASVGDRVTITCRASQSISSWLAWYQQKPGEAPKLLISDASSLESGVPSRFSGSGSGTEFTLTISSLQPDDFATYYCQQYYSSPTFGGGTKVEIK","IC50 (nM), neutralization of rVSV-GP",[1],3 nM
same,"IC50 (nM), neutralization of rVSV-GP",[3],> 350 nM
same,"IC50 (nM), neutralization of rVSV-GP",[4],0.8 nM
same,"IC50 (nM), neutralization of rVSV-GP",[5],1.3 nM
same,"IC50 (nM), neutralization of rVSV-GP",[2],0.8 nM
"PE-87 V102A (antibody, V domains shown) VH: QVQLVQSGVTLVQPGGSLRVSCAASGFTFSSYAMSWVRQAPGKGLEWVSAISGLGGSTYYADSVKGRFTISRDNSKNTLYLQMNSLRAEDTAVYYCAKDHRAWAAGYHFDYWGQGALVTVSS VL: DIVLTQSPSTLSASVGDRVTITCRASQSISSWLAWYQQKPGEAPKLLISDASSLESGVPSRFSGSGSGTEFTLTISSLQPDDFATYYCQQYYSSPTFGGGTKVEIK","IC50 (nM), neutralization of rVSV-GP",[1],0.6 nM
same,"IC50 (nM), neutralization of rVSV-GP",[3],1.1 nM
same,"IC50 (nM), neutralization of rVSV-GP",[4],0.2 nM
same,"IC50 (nM), neutralization of rVSV-GP",[5],0.2 nM
same,"IC50 (nM), neutralization of rVSV-GP",[2],1 nM
